Series [1] has as its target dansyl-Gab2(637-649) peptide (UniProt Q9UQC2). The experiment in a line: Stopped-flow fluorescence (FRET), displacement kinetics. The note with it: 298 K in Results, 283 K in Methods (conflict in the article), no added salt (50 mM buffer only), 50 mM acetate at pH 5.0 and 5.5, 50 mM Bis-Tris at pH 6.0 and 6.5, 50 mM Hepes at pH 7.0 and 7.5, 50 mM Tris-HCl at pH 8.
For series [2] the target is unchanged. Briefly: Stopped-flow kinetics; K D from the rate constants of C1 and C2. The note with it: 298 K in Results, 283 K in Methods (conflict in the article), no added salt (50 mM buffer only), 50 mM acetate at pH 5.0 and 5.5, 50 mM Bis-Tris at pH 6.0 and 6.5, 50 mM Hepes at pH 7.0 and 7.5, 50 mM Tris-HCl at pH 8.
Series [3] shares this target. The experiment in a line: Stopped-flow fluorescence (FRET Trp112 to dansyl), pseudo-first-order association kinetics. The note with it: 298 K in Results, 283 K in Methods (conflict in the article), no added salt (50 mM buffer only), 50 mM acetate at pH 5.0 and 5.5, 50 mM Bis-Tris at pH 6.0 and 6.5, 50 mM Hepes at pH 7.0 and 7.5, 50 mM Tris-HCl at pH 8.
For a further series, the target named is His169 (UniProt position 169, KSKVTHVMIRC). The experiment in a line: kinetics (stopped-flow fluorescence/FRET binding and displacement). As to conditions: 283 K according to Methods (stopped-flow binding and displacement) and the Figure S2 legend. Results text states 298 K.; 50 mM buffer, no added salt stated for the pH series; 50 mM acetate (pH 5.0, 5.5), 50 mM Bis-Tris (pH 6.0, 6.5), 50 mM Hepes (pH 7.0, 7.5), 50 mM Tris-HCl (pH 8.0); 2 mM DTT in all; Folded domain, cysteines reduced. The binding reaction with the phosphopeptide was followed, so the pKa is derived from both kon and koff.

The target of series [4] is dansyl-Gab2(637-649) peptide (UniProt Q9UQC2). Briefly: Stopped-flow fluorescence (FRET), pseudo-first-order association kinetics, ionic-strength series. The note with it: pH 8.0, 298 K in Results, 283 K in Methods (conflict in the article).

The values below come from PMC8605372.

On to SHP2 C-SH2 domain H132A H132A, for which the k off in series [1] (pH 5.0) was 80 s⁻¹; in series [1] (pH 5.5), 69 s⁻¹; in series [1] (pH 6.0), 91 s⁻¹; in series [1] (pH 6.5), 143 s⁻¹; in series [1] (pH 7.0) it was 168 s⁻¹; in series [1] (pH 7.5), 219 s⁻¹. In addition, the k off in series [1] (pH 8.0) is 287 s⁻¹. In addition, the K D in series [2] (pH 5.0) was determined as 3.6 µM; in series [2] (pH 5.5) it was 2.4 µM; in series [2] (pH 6.0) it was 2 µM; in series [2] (pH 6.5) it was 10.4 µM; in series [2] (pH 7.0) it was 8.5 µM; in series [2] (pH 7.5), 12 µM. The K D in series [2] (pH 8.0) worked out at 27 µM. Further, the k on came to 2.2e+07 M⁻¹ s⁻¹ in series [3] (pH 5.0); 2.9e+07 M⁻¹ s⁻¹ in series [3] (pH 5.5); 4.5e+07 M⁻¹ s⁻¹ in series [3] (pH 6.0); 1.4e+07 M⁻¹ s⁻¹ in series [3] (pH 6.5); 2e+07 M⁻¹ s⁻¹ in series [3] (pH 7.0); 1.8e+07 M⁻¹ s⁻¹ in series [3] (pH 7.5). In addition, the k on in series [3] (pH 8.0) came to 1.1e+07 M⁻¹ s⁻¹.

By pKa is commonly meant the negative logarithm of the acid dissociation constant. Turning to “Tyrosine-protein phosphatase non-receptor type 11 (SHP2), C-terminal SH2 domain (C-SH2) (Homo sapiens (inferred; organism not stated in the article))”, the pKa with His169 is recorded as 7.1 ± 0.2.

As to SHP2 C-SH2 domain H143A H143A, the k off worked out at 154 s⁻¹ in series [1] (pH 5.0); 127 s⁻¹ in series [1] (pH 5.5); 149 s⁻¹ in series [1] (pH 6.0); 226 s⁻¹ in series [1] (pH 6.5); 183 s⁻¹ in series [1] (pH 7.0); 225 s⁻¹ in series [1] (pH 7.5). Besides, the k off in series [1] (pH 8.0) worked out at 148 s⁻¹. Moreover, the K D in series [2] (pH 5.0) worked out at 14.3 µM; in series [2] (pH 5.5) it was 4 µM; in series [2] (pH 6.0), 7.4 µM; in series [2] (pH 6.5), 25 µM; in series [2] (pH 7.0), 23 µM; in series [2] (pH 7.5), 17 µM. Besides, the K D in series [2] (pH 8.0) was determined as 10.8 µM. The k on in series [3] (pH 5.0) is 1.1e+07 M⁻¹ s⁻¹; in series [3] (pH 5.5), 3.2e+07 M⁻¹ s⁻¹; in series [3] (pH 6.0), 2e+07 M⁻¹ s⁻¹; in series [3] (pH 6.5) it was 9e+06 M⁻¹ s⁻¹; in series [3] (pH 7.0) it was 8e+06 M⁻¹ s⁻¹; in series [3] (pH 7.5), 1.3e+07 M⁻¹ s⁻¹. Moreover, the k on in series [3] (pH 8.0) turned out to be 1.4e+07 M⁻¹ s⁻¹.

For SHP2 C-SH2 domain H114A H114A, the k off in series [1] (pH 5.0) came out at 92 s⁻¹; in series [1] (pH 5.5), 102 s⁻¹; in series [1] (pH 6.0) it was 148 s⁻¹; in series [1] (pH 6.5), 125 s⁻¹; in series [1] (pH 7.0), 144 s⁻¹; in series [1] (pH 7.5), 253 s⁻¹. Besides, the k off in series [1] (pH 8.0) was determined as 263 s⁻¹. Further, the K D in series [2] (pH 5.0) amounted to 8.5 µM; in series [2] (pH 5.5), 3.2 µM; in series [2] (pH 6.0), 2.9 µM; in series [2] (pH 6.5), 5.2 µM; in series [2] (pH 7.0), 4.7 µM; in series [2] (pH 7.5), 12 µM. Moreover, the K D in series [2] (pH 8.0) amounted to 12 µM. For the same substance, the k on in series [3] (pH 5.0) amounted to 1.08e+07 M⁻¹ s⁻¹; in series [3] (pH 5.5) it was 3.2e+07 M⁻¹ s⁻¹; in series [3] (pH 6.0) it was 5.2e+07 M⁻¹ s⁻¹; in series [3] (pH 6.5), 2.4e+07 M⁻¹ s⁻¹; in series [3] (pH 7.0) it was 3.1e+07 M⁻¹ s⁻¹; in series [3] (pH 7.5), 2.1e+07 M⁻¹ s⁻¹. Further, the k on in series [3] (pH 8.0) is 2.3e+07 M⁻¹ s⁻¹.

As to SHP2 C-SH2 domain H196A H196A, the k off in series [1] (pH 5.0) was 125 s⁻¹; in series [1] (pH 5.5) it was 114 s⁻¹; in series [1] (pH 6.0), 116 s⁻¹; in series [1] (pH 6.5) it was 132 s⁻¹; in series [1] (pH 7.0), 125 s⁻¹; in series [1] (pH 7.5) it was 172 s⁻¹. Also, the k off in series [1] (pH 8.0) was 162 s⁻¹. For the same substance, the K D in series [2] (pH 5.0) was found to be 5.3 µM; in series [2] (pH 5.5), 2.9 µM; in series [2] (pH 6.0), 5.4 µM; in series [2] (pH 6.5), 3.4 µM; in series [2] (pH 7.0) it was 3.4 µM; in series [2] (pH 7.5) it was 13 µM. In series [2] (pH 8.0), the K D turned out to be 13 µM. The k on in series [3] (pH 5.0) amounted to 2.4e+07 M⁻¹ s⁻¹; in series [3] (pH 5.5), 4e+07 M⁻¹ s⁻¹; in series [3] (pH 6.0) it was 2.1e+07 M⁻¹ s⁻¹; in series [3] (pH 6.5), 3.9e+07 M⁻¹ s⁻¹; in series [3] (pH 7.0) it was 3.7e+07 M⁻¹ s⁻¹; in series [3] (pH 7.5), 1.3e+07 M⁻¹ s⁻¹. Also, the k on in series [3] (pH 8.0) worked out at 1.2e+07 M⁻¹ s⁻¹.

Turning to “SHP2 (PTPN11) C-terminal SH2 domain, wild type”, the k off came to 80 s⁻¹ in series [1] (pH 5.0); 79 s⁻¹ in series [1] (pH 5.5); 112 s⁻¹ in series [1] (pH 6.0); 141 s⁻¹ in series [1] (pH 6.5); 147 s⁻¹ in series [1] (pH 7.0); 234 s⁻¹ in series [1] (pH 7.5). Also, in series [1] (pH 8.0), the k off turned out to be 210 s⁻¹. The K D in series [2] (pH 5.0) is 3.8 µM; in series [2] (pH 5.5) it was 2.8 µM; in series [2] (pH 6.0), 4.7 µM; in series [2] (pH 6.5), 6.9 µM; in series [2] (pH 7.0), 6.8 µM; in series [2] (pH 7.5) it was 17.2 µM. The K D in series [2] (pH 8.0) worked out at 21.3 µM. Further, the k on in series [3] (pH 5.0) is 2.11e+07 M⁻¹ s⁻¹; in series [3] (pH 5.5), 2.86e+07 M⁻¹ s⁻¹; in series [3] (pH 6.0), 2.41e+07 M⁻¹ s⁻¹; in series [3] (pH 6.5), 2e+07 M⁻¹ s⁻¹; in series [3] (pH 7.0), 2.2e+07 M⁻¹ s⁻¹; in series [3] (pH 7.5) it was 1.36e+07 M⁻¹ s⁻¹. Also, the k on in series [3] (pH 8.0) was determined as 9.9e+06 M⁻¹ s⁻¹; in series [4] (highest of the series: 50 mM Tris-HCl + 150 mM NaCl, Tris-HCl 50 mM pH 8.0), 6.4e+06 ± 500000 M⁻¹ s⁻¹; in series [4] (lowest of the series: 10 mM Tris-HCl, no NaCl, Tris-HCl 10 mM pH 8.0), 3.14e+07 ± 3.8e+06 M⁻¹ s⁻¹.

As for SHP2 C-SH2 domain H116A H116A, the k off is 103 s⁻¹ in series [1] (pH 5.0); 98 s⁻¹ in series [1] (pH 5.5); 105 s⁻¹ in series [1] (pH 6.0); 130 s⁻¹ in series [1] (pH 6.5); 170 s⁻¹ in series [1] (pH 7.0); 204 s⁻¹ in series [1] (pH 7.5). For the same substance, the k off in series [1] (pH 8.0) turned out to be 196 s⁻¹. Moreover, the K D in series [2] (pH 5.0) was determined as 6.6 µM; in series [2] (pH 5.5), 3.4 µM; in series [2] (pH 6.0), 5.6 µM; in series [2] (pH 6.5) it was 6.4 µM; in series [2] (pH 7.0), 11 µM; in series [2] (pH 7.5) it was 20 µM. The K D in series [2] (pH 8.0) was found to be 14 µM. For the same substance, the k on in series [3] (pH 5.0) was determined as 1.6e+07 M⁻¹ s⁻¹; in series [3] (pH 5.5) it was 2.9e+07 M⁻¹ s⁻¹; in series [3] (pH 6.0), 1.9e+07 M⁻¹ s⁻¹; in series [3] (pH 6.5) it was 2e+07 M⁻¹ s⁻¹; in series [3] (pH 7.0), 1.5e+07 M⁻¹ s⁻¹; in series [3] (pH 7.5), 1.1e+07 M⁻¹ s⁻¹. The k on in series [3] (pH 8.0) came to 1.4e+07 M⁻¹ s⁻¹.
